The test system of data set [1] is healthy male volunteers. The data set can be described thus: Pharmacodynamics (glucose infusion rate) in hyperinsulinemic euglycemic clamp (HEC). Type of data set: in vivo, human. The note with it: N = 26, single s.c. 0.3 IU/kg, arithmetic mean (SD); for AUCGIR0‐t / GIRmax: 8-h HEC. The method, then:
The PD effect of insulin aspart was evaluated using the manual euglycemic clamp technique, as described previously[7] with adaptations described below.
Before the clamp procedure. Subjects were hospitalized approximately 12 hours before each drug administration. After the baseline physical examination, vital signs measurements, alcohol breath test, and urine drug testing were performed to confirm compliance with the study restrictions. All participants were given a standardized light meal in the evening before the clamp. Subjects fasted for at least 10 hours before the dosing and remained fasted until the end of the clamp.
During the clamp procedure. The next morning HEC was performed.
Pharmacodynamics. As described above, blood glucose values determined every 5 minutes during HEC were used to measure and manually adjust GIR.

For data set [2], the system named is healthy male volunteers. Description: Safety and tolerability (adverse events) in HEC study. Type of data set: in vivo, human. The note with it: single s.c. 0.3 IU/kg, N = 26; for Number of adverse events (AEs): all transitory and mild, most probably related to the HEC procedure; for Tolerability of single dose: healthy male volunteers. On the procedure: Safety evaluation. The safety and tolerability of both studied drugs were also assessed. Throughout the trial, adverse events (AEs) were monitored and all participants underwent physical examination, vital signs assessment, electrocardiogram (ECG) recording, and laboratory blood and urine testing.

The conditions of data set [3]: human, in vivo, sc.
Method: (§1) This was a phase 1, randomized, double‐blind, two‐center, two‐treatment, single‐dose, two‐period, crossover, 8‐hour HEC study in healthy subjects. The study was conducted simultaneously in 2018 at two clinical sites (Almazov National Medical Research Center, Saint Petersburg, Russia, and Endocrinology Research Centre, Moscow).
(§2) NovoRapid® Penfill® (Novo‐Asp), as a solution for injection (100 IU/mL), by NovoNordisk, Denmark was used as a reference drug. Both drugs were administered subcutaneously into the abdomen using a BD Micro‐Fine 0.5‐mL insulin syringe with an 8‐mm needle. In this study, the dose of insulin aspart was 0.3 IU/kg for each formulation.
(§3) The next morning HEC was performed. Subjects remained in a supine position for the entire procedure. The time of dosing of the investigated insulins was defined as a zero point. Plasma glucose levels were measured to confirm euglycemia state 60 and 30 minutes prior to the dosing. The target value for blood glucose concentrations during the clamp procedure was defined as 90 mg/100 mL and the acceptable glycemic range in this study was set as 80–100 mg/100 mL. After subcutaneous injection of the investigated insulin, intravenous 20% glucose infusion was started once the baseline plasma glucose level decreased by more than 5 mg/100 mL. The glucose infusion rate (GIR) was controlled and adjusted manually using an infusion pump (Infusomat fmS, B. Braun Melsungen AG, Germany) to maintain plasma glucose concentrations of 80–100 mg/100 mL. HEC lasted 8 hours, and during the entire procedure glycemia was measured using a glucose analyzer (StatStrip, Nova Biomedical, USA) and GIR was adjusted accordingly every 5 minutes. The GIR was documented throughout the procedure and was used to reflect the activity of insulin. Glucose infusion could be discontinued earlier if GIR equaled 0 mg/kg/min at three consecutive measurements 6 hours or more after dosing. Blood samples for PK assessment were obtained for 8 hours postdose.
(§4) Pharmacokinetics. During each HEC 21 samples (each 9 mL of venous blood) were collected from all participants at regular time intervals to assess the concentrations of insulin aspart and C‐peptide: 60, 30, 0 minutes predose and 10, 20, 30, 40, 50, 60, 75, 90, 105, 120, 135, 150, 165, 240, 300, 360, 420, 480 minutes postdose. To obtain plasma samples for the bioanalytical part the blood samples were centrifuged at 3000 rpm for 15 minutes, then the supernatant was transferred into clean tubes. Insulin determination in plasma was performed by a validated enzyme immunoassay (EIA) method using a Personal Lab (Adaltis S.r.l., Italy) analyzer. A Mercodia Iso‐Insulin ELISA kit (Mercodia, Sweden) was used to measure total endogenous human insulin and insulin aspart concentrations and then a Mercodia Insulin ELISA kit (Mercodia) was used to quantify specifically the endogenous human insulin concentration. […] The validated lower (LLOQ) and upper (ULOQ) levels of quantification for total insulin assay were 10.00 and 300.00 μIU/mL, and for human insulin assay they were 10.00 and 150.00 μIU/mL.
Data set [4] can be described thus: Pharmacokinetics of insulin aspart in plasma during hyperinsulinemic euglycemic clamp (HEC). The note with it: healthy male volunteers, N = 26, arithmetic mean (SD); for AUCins.0‐t: single s.c. 0.3 IU/kg into abdomen, ELISA double measurement; for AUCins.0‐t / Cins.max: 8-h HEC, plasma; for Cins.max: ELISA; for AUCins.0‐∞: extrapolated to infinity.
Method: as §1, §2, §3, §4

Read-outs that look alike come from different tables or passages of the source.

Regarding insulin aspart [GP‐Asp], in the data set with healthy male volunteers [1], the “AUCGIR0‐t” value is given as 43.48 (12.43) mg/kg × 60 min, the GIRmax is 11.21 (3.43) mg/kg/min, the “tGIRlag (onset of action)” value is recorded as 0.48 (0.21) and the “tGIRmax (time to reach GIRmax)” value is given as 2.75 (0.94). In the data set on healthy male volunteers [2], the Cases of hyperbilirubinemia entry is “One”, the Cases of phlebitis entry was “one”, the “Number of adverse events (AEs)” value is on record as “two” and the “Tolerability of single dose” value was “well tolerated”. For the same substance, the t1/2 in data set [3] is reported as 0.88 (0.31) h. Further, the “AUCins.0‐t” value in data set [4] is recorded as 750.86 (163.48) μLU/mL × h. In addition, in data set [4] (single s.c. 0.3 IU/kg), the Cins.max is listed as 286.95 (86.53) μLU/ml/mL, the tmax was 1.51 (0.53) h and the “AUCins.0‐∞” value is reported as 776.90 (166.33) μLU/ml/mL × h.

With insulin aspart [Novo‐Asp], in the data set with healthy male volunteers [1], the “AUCGIR0‐t” value is on record as 42.81 (13.28) mg/kg × 60 min, the GIRmax is reported as 10.65 (3.3) mg/kg/min, the “tGIRlag (onset of action)” value is given as 0.44 (0.18) and the “tGIRmax (time to reach GIRmax)” value is 2.82 (1.02). In the data set on healthy male volunteers [2], the Cases of hyperbilirubinemia result is “One”, the Cases of phlebitis entry was “one”, the “Number of adverse events (AEs)” value was “two” and the “Tolerability of single dose” value is “well tolerated”. In data set [4], the “AUCins.0‐t” value is 716.37 (199.60) μLU/mL × h. In data set [4] (single s.c. 0.3 IU/kg), the Cins.max is on record as 245.58 (72.70) μLU/ml/mL, the t1/2 is listed as 0.93 (0.36) h, the tmax is reported as 1.37 (0.49) h and the “AUCins.0‐∞” value is recorded as 745.70 (209.72) μLU/ml/mL × h.
